This test addresses T1, His-tagged SIRT1 (bacterially expressed) (human, UniProt Q96EB6).
T1 sequence: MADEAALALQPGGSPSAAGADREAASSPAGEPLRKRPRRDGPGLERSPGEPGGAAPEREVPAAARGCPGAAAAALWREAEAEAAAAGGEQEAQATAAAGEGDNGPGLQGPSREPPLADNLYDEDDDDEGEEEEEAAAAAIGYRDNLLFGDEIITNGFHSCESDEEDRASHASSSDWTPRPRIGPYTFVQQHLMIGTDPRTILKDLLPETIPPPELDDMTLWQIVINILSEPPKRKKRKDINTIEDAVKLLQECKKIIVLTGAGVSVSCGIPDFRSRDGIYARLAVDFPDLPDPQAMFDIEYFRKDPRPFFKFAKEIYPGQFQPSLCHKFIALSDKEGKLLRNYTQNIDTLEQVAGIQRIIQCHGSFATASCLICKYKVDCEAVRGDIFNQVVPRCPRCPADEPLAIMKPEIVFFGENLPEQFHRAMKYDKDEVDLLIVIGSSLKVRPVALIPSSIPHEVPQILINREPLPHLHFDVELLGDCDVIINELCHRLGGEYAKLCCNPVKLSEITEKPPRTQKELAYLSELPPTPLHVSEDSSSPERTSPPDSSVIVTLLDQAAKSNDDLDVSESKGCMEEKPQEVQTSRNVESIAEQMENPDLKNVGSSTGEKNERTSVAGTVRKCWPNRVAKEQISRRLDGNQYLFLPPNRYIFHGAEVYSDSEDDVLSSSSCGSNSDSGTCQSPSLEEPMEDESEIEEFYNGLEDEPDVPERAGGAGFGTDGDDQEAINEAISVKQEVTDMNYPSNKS
Put plainly: SEC.

Where a chain is given by its changes, count along the chain named.

B1: His-tagged TULP3 (bacterially expressed) (natural protein)
chain: MEASRCRLSPSGDSVFHEEMMKMRQAKLDYQRLLLEKRQRKKRLEPFMVQPNPEARLRRAKPRASDEQTPLVNCHTPHSNVILHGIDGPAAVLKPDEVHAPSVSSSVVEEDAENTVDTASKPGLQERLQKHDISESVNFDEETDGISQSACLERPNSASSQNSTDTGTSGSATAAQPADNLLGDIDDLEDFVYSPAPQGVTVRCRIIRDKRGMDRGLFPTYYMYLEKEENQKIFLLAARKRKKSKTANYLISIDPVDLSREGESYVGKLRSNLMGTKFTVYDRGICPMKGRGLVGAAHTRQELAAISYETNVLGFKGPRKMSVIIPGMTLNHKQIPYQPQNNHDSLLSRWQNRTMENLVELHNKAPVWNSDTQSYVLNFRGRVTQASVKNFQIVHKNDPDYIVMQFGRVADDVFTLDYNYPLCAVQAFGIGLSSFDSKLACE
Turning to B1, the binding result is reported as “binds”.

B2: His-tagged TULP3-4G (natural protein)
chain: B1 chain with Y193G, P195G, K333G, P336G
Turning to B2, the binding result is “binds”.

(Values after article doi:10.1101/2023.12.07.570558 (bioRxiv, 2023).)
